The values below are quoted from earlier work in publication PMC6289173.

The target of the series is endophilin (UniProt O35179).

What is called Kd is the equilibrium constant for the complex coming apart. In the case of endophilin (from UniProt O35179), the Kd was 10 µM.
